{"source": "paper PMC4525287", "about": "“Auxiliary KCNE subunits modulate both homotetrameric Kv2.1 and heterotetrameric Kv2.1/Kv6.4 channels” (Scientific Reports, 2015)", "binders": {"B1": {"name": "C-terminally YFP-labeled KCNE5 (natural protein, human, UniProt Q9UJ90 1-142, looked up)", "chain": "MNCSESQRLRTLLSRLLLELHHRGNASGLGAGPRPSMGMGVVPDPFVGREVTSAKGDDAYLYILLIMIFYACLAGGLILAYTRSRKLVEAKDEPSQACAEHEWAPGGALTADAEAAAGSQAEGRRQLASEGLPALAQGAERV"}}, "molecular_target": "T1, unlabeled Kv2.1 (human, UniProt Q14721 1-858)", "T1 sequence (looked up)": "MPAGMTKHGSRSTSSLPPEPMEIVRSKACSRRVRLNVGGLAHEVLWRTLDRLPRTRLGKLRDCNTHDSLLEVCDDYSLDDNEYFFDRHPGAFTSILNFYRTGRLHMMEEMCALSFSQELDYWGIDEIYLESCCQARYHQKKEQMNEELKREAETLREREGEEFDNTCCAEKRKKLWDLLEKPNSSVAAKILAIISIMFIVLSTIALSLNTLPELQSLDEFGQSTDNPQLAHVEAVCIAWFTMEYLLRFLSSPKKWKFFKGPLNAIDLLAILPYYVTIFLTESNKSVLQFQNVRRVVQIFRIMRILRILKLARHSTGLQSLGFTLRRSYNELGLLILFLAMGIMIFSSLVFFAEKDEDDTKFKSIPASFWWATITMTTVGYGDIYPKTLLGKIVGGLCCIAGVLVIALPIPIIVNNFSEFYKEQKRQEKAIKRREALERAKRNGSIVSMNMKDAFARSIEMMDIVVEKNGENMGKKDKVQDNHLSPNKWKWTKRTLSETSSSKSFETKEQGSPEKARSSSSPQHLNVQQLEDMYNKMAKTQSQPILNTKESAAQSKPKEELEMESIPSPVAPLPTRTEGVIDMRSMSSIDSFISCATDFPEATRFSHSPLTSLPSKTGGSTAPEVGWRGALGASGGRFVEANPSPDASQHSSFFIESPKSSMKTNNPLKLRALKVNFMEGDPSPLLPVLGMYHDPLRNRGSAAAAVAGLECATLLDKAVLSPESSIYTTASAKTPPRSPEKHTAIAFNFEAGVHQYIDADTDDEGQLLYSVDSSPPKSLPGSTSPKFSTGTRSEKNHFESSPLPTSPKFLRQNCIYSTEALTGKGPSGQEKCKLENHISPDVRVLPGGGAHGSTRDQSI", "assay": "cell-based or functional assay"}
{"binder": "B1", "values": [{"measurement": "fast component of the activation of Kv2.1/Kv6.4 heterotetramers on co-expression of (untagged) KCNE5 with Kv2.1 and Kv6.4 in HEK293 cells, between +20 mV and +70 mV (whole cell current recordings)", "result": "~2", "unit": "fold"}]}
